Measurements from paper PMC13397619.

B1: NLV3 TCR beta chain (CDR3β only) (parent)
chain: ASSPTGGSPSPLH
partner: MLVPMVATV
B2: NLV3 TCR beta chain (CDR3β only) (parent)
chain: ASSPTGGSPSPLH

Variants of: B1
Test: T-Switch: Jurkat TCRβ−/− cells expressing a CDR3 saturation-mutagenesis library, stained with two peptide-HLA-A*02:01 tetramers (original and novel peptide) plus anti-CD3, FACS-sorted into four gates, gDNA sequenced
Conditions: with HLA-A*02:01 with peptide … (NLV 3-1, the original bait), tetramers 1 µg/mL, 30 min on ice, DP and SW gates expanded about 10 days between rounds ('two to three rounds of selection' in the Methods), gate SP: higher = more of the variant in the gate that binds the original peptide and not the novel one = retained original binding. Fold enrichment of the CDR3 variant in one FACS gate of a two-tetra, unresolved parent, parent is a CDR3 fragment, scale: fold enrichment, numbering: sequential-on-construct, sequence …

How did the enrichment turn out when […] (CDR3 as printed); S2M derived by comparing it with the table's wild-type CDR3 ASSPTGGSPSPLH was run?
The enrichment was 0.

For […] (CDR3 as printed); P9S derived by comparing it with the table's wild-type CDR3 ASSPTGGSPSPLH, which enrichment is on record?
Its enrichment is 0.568.

Which enrichment does the source give for […] (CDR3 as printed); P4C derived by comparing it with the table's wild-type CDR3 ASSPTGGSPSPLH here?
Its enrichment is 0.

[…] (CDR3 as printed); H13V derived by comparing it with the table's wild-type CDR3 ASSPTGGSPSPLH was tested. Which enrichment did it give?
The enrichment was 5.71.

How did the enrichment turn out when […] (CDR3 as printed); S2H derived by comparing it with the table's wild-type CDR3 ASSPTGGSPSPLH was run?
Its enrichment is 0.863.

With […] (CDR3 as printed); P4M derived by comparing it with the table's wild-type CDR3 ASSPTGGSPSPLH as the variant, how does the enrichment read?
Its enrichment is 4.15.

[…] (CDR3 as printed); A1I derived by comparing it with the table's wild-type CDR3 ASSPTGGSPSPLH was tested. Which enrichment did it give?
Its enrichment is 0.

How did the enrichment turn out when […] (CDR3 as printed); S8A derived by comparing it with the table's wild-type CDR3 ASSPTGGSPSPLH was run?
Its enrichment is 11.2.

[…] (CDR3 as printed); T5G derived by comparing it with the table's wild-type CDR3 ASSPTGGSPSPLH was tested. Which enrichment did it give?
Its enrichment is 0.

For […] (CDR3 as printed); S3M derived by comparing it with the table's wild-type CDR3 ASSPTGGSPSPLH, which enrichment is on record?
Its enrichment is 0.

How did the enrichment turn out when […] (CDR3 as printed); H13A derived by comparing it with the table's wild-type CDR3 ASSPTGGSPSPLH was run?
The enrichment was 6.12.

Which enrichment does the source give for […] (CDR3 as printed); H13R derived by comparing it with the table's wild-type CDR3 ASSPTGGSPSPLH here?
Its enrichment is 4.99.

[…] (CDR3 as printed); P9M derived by comparing it with the table's wild-type CDR3 ASSPTGGSPSPLH was tested. Which enrichment did it give?
Its enrichment is 0.

[…] (CDR3 as printed); G7H derived by comparing it with the table's wild-type CDR3 ASSPTGGSPSPLH was tested. Which enrichment did it give?
Its enrichment is 0.

With […] (CDR3 as printed); G6D derived by comparing it with the table's wild-type CDR3 ASSPTGGSPSPLH as the variant, how does the enrichment read?
Its enrichment is 0.39.

How did the enrichment turn out when […] (CDR3 as printed); P11K derived by comparing it with the table's wild-type CDR3 ASSPTGGSPSPLH was run?
Its enrichment is 8.18.

For […] (CDR3 as printed); L12Y derived by comparing it with the table's wild-type CDR3 ASSPTGGSPSPLH, which enrichment is on record?
Its enrichment is 0.

For […] (CDR3 as printed); S3Y derived by comparing it with the table's wild-type CDR3 ASSPTGGSPSPLH, which enrichment is on record?
The enrichment was 0.

How did the enrichment turn out when […] (CDR3 as printed); G6N derived by comparing it with the table's wild-type CDR3 ASSPTGGSPSPLH was run?
Its enrichment is 0.

[…] (CDR3 as printed); P11Y derived by comparing it with the table's wild-type CDR3 ASSPTGGSPSPLH was tested. Which enrichment did it give?
Its enrichment is 1.78.

For […] (CDR3 as printed); G7F derived by comparing it with the table's wild-type CDR3 ASSPTGGSPSPLH, which enrichment is on record?
Its enrichment is 0.

[…] (CDR3 as printed); A1V derived by comparing it with the table's wild-type CDR3 ASSPTGGSPSPLH was tested. Which enrichment did it give?
Its enrichment is 0.479.

For […] (CDR3 as printed); L12G derived by comparing it with the table's wild-type CDR3 ASSPTGGSPSPLH, which enrichment is on record?
The enrichment was 0.

Which enrichment does the source give for […] (CDR3 as printed); P11S derived by comparing it with the table's wild-type CDR3 ASSPTGGSPSPLH here?
The enrichment was 2.02.

Which enrichment does the source give for […] (CDR3 as printed); P11V derived by comparing it with the table's wild-type CDR3 ASSPTGGSPSPLH here?
Its enrichment is 0.

Which enrichment does the source give for […] (CDR3 as printed); P9E derived by comparing it with the table's wild-type CDR3 ASSPTGGSPSPLH here?
Its enrichment is 0.

How did the enrichment turn out when […] (CDR3 as printed); G6F derived by comparing it with the table's wild-type CDR3 ASSPTGGSPSPLH was run?
Its enrichment is 0.

How did the enrichment turn out when […] (CDR3 as printed); S2Y derived by comparing it with the table's wild-type CDR3 ASSPTGGSPSPLH was run?
The enrichment was 0.

How did the enrichment turn out when […] (CDR3 as printed); S10M derived by comparing it with the table's wild-type CDR3 ASSPTGGSPSPLH was run?
Its enrichment is 9.51.

How did the enrichment turn out when […] (CDR3 as printed); S10F derived by comparing it with the table's wild-type CDR3 ASSPTGGSPSPLH was run?
Its enrichment is 0.

For […] (CDR3 as printed); P9C derived by comparing it with the table's wild-type CDR3 ASSPTGGSPSPLH, which enrichment is on record?
Its enrichment is 0.

For […] (CDR3 as printed); S3C derived by comparing it with the table's wild-type CDR3 ASSPTGGSPSPLH, which enrichment is on record?
Its enrichment is 11.2.

How did the enrichment turn out when […] (CDR3 as printed); S3A derived by comparing it with the table's wild-type CDR3 ASSPTGGSPSPLH was run?
The enrichment was 9.82.

How did the enrichment turn out when […] (CDR3 as printed); G7V derived by comparing it with the table's wild-type CDR3 ASSPTGGSPSPLH was run?
The enrichment was 0.

How did the enrichment turn out when […] (CDR3 as printed); A1G derived by comparing it with the table's wild-type CDR3 ASSPTGGSPSPLH was run?
The enrichment was 5.7.

Which enrichment does the source give for […] (CDR3 as printed); T5R derived by comparing it with the table's wild-type CDR3 ASSPTGGSPSPLH here?
Its enrichment is 0.

Which enrichment does the source give for […] (CDR3 as printed); A1H derived by comparing it with the table's wild-type CDR3 ASSPTGGSPSPLH here?
Its enrichment is 0.

[…] (CDR3 as printed); S8K derived by comparing it with the table's wild-type CDR3 ASSPTGGSPSPLH was tested. Which enrichment did it give?
The enrichment was 0.

With […] (CDR3 as printed); S3I derived by comparing it with the table's wild-type CDR3 ASSPTGGSPSPLH as the variant, how does the enrichment read?
Its enrichment is 0.

Variants of: B2
Test: as above
Conditions: with both tetramers (double-negative gate, binds neither): HLA-A*02:01 with … and with …, tetramers 1 µg/mL, 30 min on ice, SP, DP and SW gates expanded about 10 days between rounds ('two to three rounds of selection' in the Methods), gate DN: OPPOSITE: higher = more of the variant in the gate that binds neither peptide = LESS binding (or no expression; inferred). Fold enrichment of the CDR3 variant in one FACS gate of a two-tetram, unresolved parent, parent is a CDR3 fragment, zero in all gates, scale: fold enrichment, numbering: sequential-on-construct, …

With […] (CDR3 as printed); S2L derived by comparing it with the table's wild-type CDR3 ASSPTGGSPSPLH as the variant, how does the enrichment read?
The enrichment was 0.

Same assay, conditions: with both tetramers (double-positive gate): HLA-A*02:01 with … and with …, tetramers 1 µg/mL, 30 min on ice, SP, DP and SW gates expanded about 10 days between rounds ('two to three rounds of selection' in the Methods), gate DP: higher = more of the variant in the gate that binds both peptides. Fold enrichment of the CDR3 variant in one FACS gate of a two-tetramer stain. SP/DP/SW gates were expanded and re-sorted bef, unresolved parent, parent is a CDR3 fragment, zero in all gates, scale: fold enrichment, numbering: sequential-on-construct, sequence starts at 1

How did the enrichment turn out when […] (CDR3 as printed); S2L derived by comparing it with the table's wild-type CDR3 ASSPTGGSPSPLH was run?
The enrichment was 0.

Same assay, conditions: with both tetramers (double-negative gate, binds neither): HLA-A*02:01 with … and with …, tetramers 1 µg/mL, 30 min on ice, SP, DP and SW gates expanded about 10 days between rounds ('two to three rounds of selection' in the Methods), gate DN: OPPOSITE: higher = more of the variant in the gate that binds neither peptide = LESS binding (or no expression; inferred). Fold enrichment of the CDR3 variant in one FACS gate of a two-tetram, unresolved parent, parent is a CDR3 fragment, scale: fold enrichment, numbering: sequential-on-construct, sequence starts at 1

With […] (CDR3 as printed); T5V derived by comparing it with the table's wild-type CDR3 ASSPTGGSPSPLH as the variant, how does the enrichment read?
Its enrichment is 0.249.

Same assay, conditions: with both tetramers (double-positive gate): HLA-A*02:01 with … and with …, tetramers 1 µg/mL, 30 min on ice, SP, DP and SW gates expanded about 10 days between rounds ('two to three rounds of selection' in the Methods), gate DP: higher = more of the variant in the gate that binds both peptides. Fold enrichment of the CDR3 variant in one FACS gate of a two-tetramer stain. SP/DP/SW gates were expanded and re-sorted bef, unresolved parent, parent is a CDR3 fragment, scale: fold enrichment, numbering: sequential-on-construct, sequence starts at 1

With […] (CDR3 as printed); T5V derived by comparing it with the table's wild-type CDR3 ASSPTGGSPSPLH as the variant, how does the enrichment read?
Its enrichment is 0.
